# T1: Smc3 hinge domain fusion protein, wild type (Smc3H) (yeast, UniProt P47037 495-705)
# T1 sequence: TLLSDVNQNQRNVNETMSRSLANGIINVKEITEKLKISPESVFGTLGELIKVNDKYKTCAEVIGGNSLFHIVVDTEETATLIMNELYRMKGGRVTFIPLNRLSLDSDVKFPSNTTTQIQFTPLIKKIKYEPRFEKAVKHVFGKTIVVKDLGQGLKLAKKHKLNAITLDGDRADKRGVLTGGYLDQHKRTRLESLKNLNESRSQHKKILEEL
# B1: Smc1 hinge domain fusion protein, wild type (Smc1H) (domain or fragment)
# chain: SANQRETMKERKLRENIAMLKRFFPGVKGLVHDLCHPKKEKYGLAVSTILGKNFDSVIVENLTVAQECIAFLKKQRAGTASFIPLDTIETELPTLSLPDSQDYILSINAIDYEPEYEKAMQYVCGDSIICNTLNIAKDLKWKKGIRGKLVTIEGALIHKAGLMTGGISGDANNRWDKEE
# Molecular target: T1, Smc3 hinge domain fusion protein, wild …
# Assay: SEC
binder,measurement,value
B1,binding result,binds
